Where two headings read alike, the source gives them in different places.
Tests used:
[1] = tested on: patient derived colorectal cancer organoids (PDOs); assay: allogeneic CD8 T cell co-culture assay with patient derived colorectal cancer organoids, GFP confluence growth assessment; type: cell-based, human; conditions: 20 nM
Procedure: In order to assess the sensitivity of patient-derived colorectal cancer organoids (PDOs) to cibisatamab immunotherapy, eight patient derived colorectal cancer organoid lines with various cell surface CEA expression levels were generated and treated with cibisatamab (20 nM) or an untargeted control antibody (20 nM) during 10 days of co-culture with allogeneic CD8 T cells. CD8 T cells were isolated from allogeneic healthy donor peripheral blood mononuclear cells (PBMCs) by magnetic bead sorting and expanded in vitro with IL2 and CD3/CD28 beads for 7-14 days. GFP-tagged CRC PDO cells were then seeded in 96 well plates, T cells were added the following day and the co-cultures were imaged every 2-3 days on an automated 96 well plate fluorescence microscope. […] Co-culture with CD8 T cells without any antibody was included as a further control to enable the identification of alloreactive donor T cells.
Eight PDO lines were tested: three CEAhi PDOs (i.e. containing predominantly CEAhi cells; CRC-01, CRC-05, CRC-07), four PDOs with mixed CEA expression (i.e. containing large subpopulations of both CEAhi and CEAlo cells; CRC-02, CRC-03, CRC-04, CRC-08), and one CEAlo PDO (i.e. containing predominantly CEAlo cells; CRC-06).
PDOs were harvested with TrypLE Express and neutralised with DMEM/F12 Ham medium (Sigma Aldrich) with 10% FBS. Cells were filtered through a 70 μm filter, counted and resuspended in phenol-red free RPMI medium (Thermo Fisher) supplemented with 10% FBS (Biosera), 1× Glutamax and 100 units penicillin-streptomycin. On day 0, 5000 tumor cells per well of a 96 well-plate (Corning Special Optics Microplate) were plated. CD8 T cells were added on day 1 at the indicated effector to target (E:T) ratios with 20 nM of cibisatamab or 20 nM of the untargeted negative control antibody DP47-TCB (both provided by Roche). Tumor cells without CD8 T cells and without antibody were also included as controls. All conditions were plated in triplicates and at least 3 different healthy donors were tested on each of the 8 PDOs.
The GFP confluence was quantified every 48h-72h over a 10-day period using the GFP confluence application on the Celigo Imaging Cytometer (Nexcelom Bioscience). GFP confluence analysis was able to track the growth of GFP positive PDO cells over multiple timepoints without erroneously counting the T cells in the co-culture. […] The main advantage of confluence analysis over measuring spheroid diameters is the ability to track even the growth of PDOs showing highly variable shapes. Growth curves were generated with CD8 T cells from three different healthy blood donors. […]

[2] = tested on: CEA expressing metastatic CRCs; conditions: cited from earlier work

B1: cibisatamab (antibody, chains of the INN, looked up, V domains shown)
VH: QVQLVQSGAEVKKPGASVKVSCKASGYTFTEFGMNWVRQAPGQGLEWMGWINTKTGEATYVEEFKGRVTFTTDTSTSTAYMELRSLRSDDTAVYYCARWDFAYYVEAMDYWGQGTTVTVSS
VL: DIQMTQSPSSLSASVGDRVTITCKASAAVGTYVAWYQQKPGKAPKLLIYSASYRKRGVPSRFSGSGSGTDFTLTISSLQPEDFATYYCHQYYTYPLFTFGQGTKLEIK
VH2: QVQLVQSGAEVKKPGASVKVSCKASGYTFTEFGMNWVRQAPGQGLEWMGWINTKTGEATYVEEFKGRVTFTTDTSTSTAYMELRSLRSDDTAVYYCARWDFAYYVEAMDYWGQGTTVTVSS
VL2: QAVVTQEPSLTVSPGGTVTLTCGSSTGAVTTSNYANWVQEKPGQAFRGLIGGTNKRAPGTPARFSGSLLGGKAALTLSGAQPEDEAEYYCALWYSNLWVFGGGTKLTVL
For B1, the growth inhibition ([1]; CEAhi PDOs (CRC-01, CRC-05, CRC-07), CD8 T cells E:T 2:1, 7-10 days, versus DP47-TCB control) was 89-100%, the “reduction of the cancer cell growth rate compared to controls” value ([1]; four PDOs with mixed CEA expression (CRC-02, CRC-03, CRC-04, CRC-08), E:T 2:1) was “only a moderate reduction of the cancer cell growth rate” and the “sensitivity to treatment with CD8 T cells and antibody” value ([1]; predominantly CEAlo PDO CRC-06, E:T 2:1) was “showed resistance”. For the same molecule, the “sensitivity to treatment with CD8 T cells and antibody” value ([1]; three CEAhi PDOs, E:T 2:1) was “highly sensitive”, the “patients with radiological shrinkage (antitumor activity)” value ([2]; in combination with PD-L1-inhibiting antibodies, 5/10 patients) was 50% and the “patients with radiological shrinkage (antitumor activity)” value ([2]; monotherapy, metastatic CRC after at least two prior chemotherapy regimens, 4/36 patients) was 11%.

Source: US20220017623A1, “TREATMENT OF CANCER USING A CEA CD3 BISPECIFIC ANTIBODY AND A WNT SIGNALING INHIBITOR” (Hoffmann-La Roche Inc., priority 2019, published 2022)
